For one data set, the target named is T1, GST-SPL15SBP (Arabidopsis thaliana, UniProt Q9M2Q6 56-133).
T1 sequence: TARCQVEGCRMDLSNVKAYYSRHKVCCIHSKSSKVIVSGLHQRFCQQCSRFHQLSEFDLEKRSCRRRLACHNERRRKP
The data set is described as follows: EMSA; Beyotime EMSA kit, manufacturer's protocol (binding buffer not stated); proteins stored in 5 mM Tris-Cl pH 8.0, 50 mM KCl. The conditions noted are these: protein: recombinant; tags: GST (N-terminal, pGEX-4T-1); label: biotin; blunt. In general terms: A gel shift assay detects complexes by their altered migration in electrophoresis.

A further data set deals with T2, GST-SPL9SBP (Arabidopsis thaliana, UniProt Q700W2 71-148).
T2 sequence: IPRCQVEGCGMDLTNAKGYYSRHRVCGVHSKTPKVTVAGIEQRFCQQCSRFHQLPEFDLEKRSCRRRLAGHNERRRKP
The description is as above. As to conditions: protein: recombinant; tags: GST (N-terminal, pGEX-4T-1); label: biotin; blunt.

The next data set deals with T3, His-FHY3-I (Arabidopsis thaliana, UniProt Q9LIE5 1-251).
T3 sequence: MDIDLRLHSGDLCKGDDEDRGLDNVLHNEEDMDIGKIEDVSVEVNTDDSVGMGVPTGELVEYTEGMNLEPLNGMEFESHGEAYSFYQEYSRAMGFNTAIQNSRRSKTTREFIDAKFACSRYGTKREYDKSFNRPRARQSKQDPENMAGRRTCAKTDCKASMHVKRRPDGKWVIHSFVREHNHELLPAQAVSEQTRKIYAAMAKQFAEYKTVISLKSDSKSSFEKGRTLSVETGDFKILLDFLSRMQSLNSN
The data set is described as follows: EMSA; FHY3-I alone; Beyotime EMSA kit, manufacturer's protocol (binding buffer not stated); proteins stored in 5 mM Tris-Cl pH 8.0, 50 mM KCl. The conditions noted are these: protein: recombinant; tags: 6xHis (pET28a); label: biotin; blunt.

B1: BRC1 promoter EMSA probe (PB01/PB02) (dsDNA)
DNA 1: GAAGAAGCCAGCGAGTCCAACCATTATAGTCATGTGGTCCTCCTGATAATTGCAGGCCTA
DNA 2: TAGGCCTGCAATTATCAGGAGGACCACATGACTATAATGGTTGGACTCGCTGGCTTCTTC
B1: the binding result was “binds” in the data set with GST-SPL15SBP, “binds” with GST-SPL9SBP and “no binding” in the data set with His-FHY3-I.

For the origin of these results see article PMC7181604, “Arabidopsis FHY3 and FAR1 integrate light and strigolactone signaling to regulate branching”.
